Changes are numbered by the printed parent chain. Names and notes keep the numbering of the source.
T1: IRE1^LD-GST (human, UniProt O75460 19-486)
T1 construct: IRE1α, human, entire luminal and transmembrane domains, residues 19-486; the cytosolic effector domain is replaced by GST; also called IRE1α luminal and transmembrane domain fused to cytosolic GST; source: ΔERdj4 CHO cells, transfected, in lysate; not shown: GST, C-terminal, kept
T1 sequence (looked up): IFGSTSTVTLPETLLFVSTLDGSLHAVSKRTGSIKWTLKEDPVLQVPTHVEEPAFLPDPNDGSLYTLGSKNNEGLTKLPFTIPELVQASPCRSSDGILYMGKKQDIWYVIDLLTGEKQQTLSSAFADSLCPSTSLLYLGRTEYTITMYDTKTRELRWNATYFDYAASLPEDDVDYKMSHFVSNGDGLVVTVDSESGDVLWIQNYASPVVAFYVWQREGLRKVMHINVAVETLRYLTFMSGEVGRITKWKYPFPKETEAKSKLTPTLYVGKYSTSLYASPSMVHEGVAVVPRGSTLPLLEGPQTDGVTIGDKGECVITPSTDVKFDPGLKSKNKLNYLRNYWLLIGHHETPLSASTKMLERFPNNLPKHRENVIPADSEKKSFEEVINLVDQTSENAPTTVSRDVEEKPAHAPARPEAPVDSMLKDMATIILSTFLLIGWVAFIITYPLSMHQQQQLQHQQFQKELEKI

B1: IRE1^(LD Q105C)-GST (domain or fragment, human, UniProt O75460 19-486, looked up)
chain: T1 sequence (looked up) with Q87C
modifications: Q105C-Q105C disulfide between two copies in the dimeric species
notes: IRE1α, human, luminal and transmembrane domains as in IRE1^LD-GST (residues 19-486), with Q105C; a modified version of IRE1^LD-GST; source: ΔERdj4 CHO cells, transfected, in lysate; not shown: GST, C-terminal, kept
B2: endogenous BiP (CHO cells) (natural protein)
chain: not shown
notes: BiP, the ER luminal Hsp70, Chinese hamster, endogenous in CHO cells; detected by immunoblot with anti-hamster BiP serum; source: endogenous, CHO cell lysate

Columns and labels:
[1] = molecular target: the molecule itself; assay: cross-linking; spontaneous Q105C-Q105C disulfide of IRE1^(LD Q105C)-GST in transfected ΔERdj4 CHO cells (alone or with ERdj4 or ERdj4^QPD); glutathione Sepharose; non-reducing SDS-PAGE and immunoblot
[2] = molecular target: T1, IRE1^LD-GST; assay: pull-down; GST fusions recovered on glutathione Sepharose 4B from lysates of transfected ΔERdj4 CHO cells (co-transfected with ERdj4, ERdj4^QPD or ERdj6 where indicated); ATP-depleting lysis buffer; endogenous BiP by immunoblot; where indicated beads incubated 5 min with 3 mM ATP; settings: partners not purified

Row | Binder | fold decrease of the disulfide-linked dimeric fraction with co-transfected WT ERdj4 [1] [fold] | stoichiometry N [1] | fold recovery of BiP with co-transfected WT ERdj4 against ERdj4^QPD [2] [fold]
1 | B1 | 2.5 | 2 | 
2 | B2 |  |  | 2.5

— publication PMC5733394, “A J-Protein Co-chaperone Recruits BiP to Monomerize IRE1 and Repress the Unfolded Protein Response” (Cell, 2017)
